B1: Hairpin Ribozyme (parent)
chain: GUCCUCUUUCACGUGCGCGUGAAAGAGAGAAGUGAACCAGAGAAACACACGUUGUGGUAUAUUACCUGGUA

This is an account of results in the RNAGym collection of RNA variant scans (doi:10.7554/elife.80360).

In this data set the parent is B1. The experiment in a line: self-cleavage, relative activity (ratio to wild type); higher = more cleavage; co-transcriptional.
For A43U U55G, the self-cleavage came to 0.232. As for A43U C66A, the self-cleavage turned out to be 0.0293.

With A43U C66U, the self-cleavage came to 0.162.

On to A44U C66U, for which the self-cleavage is 0.222. For the variant A44U C66A, the self-cleavage is 0.151.

As for A43C U67C, the self-cleavage came to 0.112.

Regarding A44C A47G, the self-cleavage is 0.125. Next, A43G C46G: 0.26; A43G G56U: 0.0228; A43G G56C: 0.0421. As to A44U U63C, the self-cleavage was determined as 0.135. As for A44U U63A, the self-cleavage is 0.141. The value for A43U U52A was 0.229; that for A43U G51U was 0.0946; that for A43U G51A was 0.247. As to A43U G51C, the self-cleavage worked out at 0.241. For the variant A44U A47C, the self-cleavage came out at 0.0912. The value for A45C C65A was 0.2. Next, A44G C66G: 0.15; A44C A45U: 0.0709; A43U G56C: 0.0883. For A43U G56U, the self-cleavage came to 0.133. The value for A44C G68A was 0.103; that for A44U A59U was 0.0331; that for A44U A59G was 0.253. In the case of A45G C66A, the self-cleavage was found to be 0.176. Turning to A44U A71U, the self-cleavage is 0.256. Regarding A44U A71C, the self-cleavage is 0.3. For A43U G69A, the self-cleavage is 0.119.

For A43U G69C, the self-cleavage is 0.119. With A43G G69A, the self-cleavage came out at 0.0947. The value for A45C A71G was 0.154. On to A44G A45G, for which the self-cleavage came out at 0.228. Regarding A44G A45U, the self-cleavage worked out at 0.0878. For the variant A43G C66G, the self-cleavage turned out to be 0.0518. A43G C66A: the self-cleavage turned out to be 0.171. For A43G C66U, the self-cleavage was 0.139.

As to A44U G54A, the self-cleavage came out at 0.181. A44G G56C: the self-cleavage turned out to be 0.0768. For the variant A44G G56A, the self-cleavage is 0.191. With A44G U52C, the self-cleavage stood at 0.223. As for A44C A59G, the self-cleavage worked out at 0.158. As for A44C A59C, the self-cleavage was determined as 0.15. With A43G A71C, the self-cleavage was found to be 0.458. With A43G A71U, the self-cleavage is 0.16. The value for A43G A71G was 0.165; that for A44C C50G was 0; that for A45C A59G was 0.208. For A43G C50A, the self-cleavage amounted to 0.131. A44C C48G: the self-cleavage is 0.151. In the case of A44C C48A, the self-cleavage is 0.161. A45C U60C: the self-cleavage worked out at 0.293. For A44C U58A, the self-cleavage is 0.0929. As for A44G U62C, the self-cleavage turned out to be 0.12.

Consider A45C A64U, for which the self-cleavage was found to be 0.223.

With A45C A64C, the self-cleavage was found to be 0.138. For A44G U67C, the self-cleavage stood at 0.145. A43U A61C: the self-cleavage was found to be 0.123. Next, A43U A61G: 0.144; A43G C65G: 0.117.

As for A45G A49C, the self-cleavage was 0.103.

As for A44G A59G, the self-cleavage amounted to 0.131. In the case of A44G C65G, the self-cleavage is 0.192. Turning to A43G U58A, the self-cleavage is 0.128.

As for A44C G69U, the self-cleavage came out at 0.167. For the variant A44C G69C, the self-cleavage came to 0.141. Next, A44C A64U: 0.155. Regarding A44C A64G, the self-cleavage was found to be 0.141. The value for A44C A64C was 0.0397. In the case of A43U A44G, the self-cleavage is 0.163. Next, A43U U70G: 0.0463. Regarding A43U A47C, the self-cleavage is 0.178. For the variant A45C G51U, the self-cleavage stood at 0.116. Regarding A45G C50U, the self-cleavage amounted to 0.174.

A45G C50A: the self-cleavage worked out at 0.123. With A44U C50U, the self-cleavage is 0.252. On to A43G A49U, for which the self-cleavage came out at 0.197. A43G A49C: the self-cleavage amounted to 0.116.

Take A45C U67G: the self-cleavage came out at 0.0812. As to A45C C46U, the self-cleavage turned out to be 0.067. In the case of A45C C46A, the self-cleavage came out at 0.152. The value for A44G C50U was 0.134. Take A44G C50A: the self-cleavage worked out at 0.198. Next, A45C C50G: 0.211; A45C C50A: 0.209; A44U C46U: 0.193. Take A43G U52G: the self-cleavage turned out to be 0. As for A43G U52A, the self-cleavage came out at 0.202. Regarding A45C G57C, the self-cleavage was 0.105. For the variant A44G A71G, the self-cleavage was 0.117. Turning to A44U A61G, the self-cleavage was determined as 0.124. Turning to A44C U63G, the self-cleavage stood at 0.182. For A43G G68A, the self-cleavage was determined as 0.172.

Take A43G G68U: the self-cleavage stood at 0.092. Turning to A43G U53G, the self-cleavage stood at 0.226. For A43U A49C, the self-cleavage is 0.173. Regarding A44U U52G, the self-cleavage came to 0.121. The value for A44G U63C was 0.21; that for A44G U63G was 0.239.

On to A44C U70G, for which the self-cleavage turned out to be 0. On to A43U C48A, for which the self-cleavage turned out to be 0.206. A44G A64U: the self-cleavage is 0.102. Regarding A44G A64C, the self-cleavage is 0.12.

For the variant A44U U55C, the self-cleavage came out at 0.168. A43G A47C: the self-cleavage is 0.172. Turning to A44U C48A, the self-cleavage was determined as 0.124. For the variant A44U A64U, the self-cleavage was found to be 0.203. In the case of A44U A64C, the self-cleavage was determined as 0.216. As to A44C U62A, the self-cleavage was 0.156. On to A45C U52G, for which the self-cleavage worked out at 0.0239. Next, A45C U52C: 0.176. Consider A44C C65U, for which the self-cleavage is 0.142. Take A45C G54U: the self-cleavage stood at 0.152. Take A44G C46G: the self-cleavage was found to be 0.0715.

Consider A44C G56C, for which the self-cleavage stood at 0.0706. With A45G A61C, the self-cleavage was 0.142. As to A43G C48G, the self-cleavage was 0.139.

As for A43G U60C, the self-cleavage stood at 0.0979. The value for A45C G68C was 0.119; that for A44C U60G was 0.0874. Next, A43U A71C: 0.396; A45G C46U: 0.223.

For A45G C46A, the self-cleavage worked out at 0.17. Take A45C A61G: the self-cleavage worked out at 0.105. With A44G U58C, the self-cleavage stood at 0.0672. As to A44G G57A, the self-cleavage is 0.123. As to A43G A44U, the self-cleavage amounted to 0.207. Regarding A44C A61U, the self-cleavage turned out to be 0.212.

As for A43U C65A, the self-cleavage is 0.0905. In the case of A44U U60C, the self-cleavage was 0.103. In the case of A45C A49U, the self-cleavage was found to be 0.202. For the variant A44C A71C, the self-cleavage amounted to 0.323.

Take A44U G56A: the self-cleavage came to 0.191. On to A44C A49C, for which the self-cleavage was found to be 0.103. As to A45C U53G, the self-cleavage amounted to 0.138. With A45C C48G, the self-cleavage stood at 0.188.

On to A45C C48A, for which the self-cleavage worked out at 0.0612. On to A44G A47C, for which the self-cleavage came to 0.222. In the case of A44G A47U, the self-cleavage was found to be 0.163. For A43G U55G, the self-cleavage came to 0.128.

As for A45C U62C, the self-cleavage stood at 0.141. The value for A45G A64G was 0.1. As to A45G A64C, the self-cleavage was 0.216. Regarding A44C U55A, the self-cleavage amounted to 0.0312. As to A44G U70G, the self-cleavage was determined as 0.135. For A43U G54C, the self-cleavage is 0.0498. Regarding A43U G54A, the self-cleavage was 0.128. Consider A45C G56C, for which the self-cleavage is 0.312.

With A45C G56A, the self-cleavage is 0.144. Next, A44C C66A: 0.215; A44C C66U: 0.107; A44C C66G: 0.0764. For A45G C48A, the self-cleavage is 0.109.

A43U G57A: the self-cleavage turned out to be 0.119.

Turning to A43U G57U, the self-cleavage amounted to 0.152. As for A44G U53G, the self-cleavage worked out at 0.112. Next, A44G U53A: 0.214; A43G U67C: 0.153. For the variant A43G U67G, the self-cleavage came out at 0.207. As to A44C G57U, the self-cleavage is 0.0814. For A43U U60C, the self-cleavage came to 0.221. For A44G U55G, the self-cleavage was found to be 0.185. On to A44G G54C, for which the self-cleavage is 0.119. The value for A44G A49C was 0.0332; that for A44G A49G was 0.126; that for A44U A49C was 0.0643. Next, A43G A64U: 0.302.
